Measurements taken from patent US20230203134A1 (published 2023).
Read-outs that look alike come from different tables or passages of the source.

B1: monoclonal antibody 2-38 (antibody, V domains shown)
VH: EVQLVESGGGLVKPGGSLRLSCAASGFTFSSYSMNWVRQAPGKGLEWVSSISSSSSYIYYADSVKGRFTISRDNAKNSLYLQMNSLRAEDTAVYYCTRAGWELRLDAFDIWGQGTMVTVSS
VL: SSELTQDPAVSVALGQTVRITCQGDSLRSSYASWYQQKPGQAPILVIYDKNNRPSGIPDRFSGSSSGNTASLTITGAQAEDEADYYCNSRDSSGILFGGGTKLTVL
B2: monoclonal antibody 2-4 (antibody, V domains shown)
VH: QVQLVQSGAEVKKPGASVKVSCKASGYTFTGYYMHWVRQAPGQGLEWMGWINPNSGGTNYTQMFQGRVTMTRDTSISTAYMEVSRLRSDDTAVYYCARDRSWAVVYYYMDVWGKGTTVTVSS
VL: QSALTQPPSASGSPGQSVTISCTGTSSDVGGYNYVSWYQQHPGKAPKLMIYEVSKRPSGVPDRFSGSKSGNTASLTVSGLQAEDEADYYCSSYAGSNNLVFGGGTKLTVL
B3: monoclonal antibody 2-51 (antibody, V domains shown)
VH: QVQLVQSGAEVKKPGASVKVSCKVSGYTLIELSMHWVRQAPGKGLEWMGGFDPEDVETIYAQQFQGRVTMTEDTSTDTAYMELSSLRSEDTAVYYCATGWAYKSTWYFGYWGQGTLVTVSS
VL: QSALTQPPSASGSPGQSVTISCTGTSSDVGGYNYVSWYQQHPGKAPKLMIYEVSKRPSGVPDRFSGSKSGNTASLTVSGLQAEDEADYYCSSYAGSRMGFGGGTKLTVL
B4: monoclonal antibody 2-15 (antibody, V domains shown)
VH: QVQLVQSGAEVKKPGASVRVSCKASGYTFTGYYMHWVRQAPGQGLEWMGWINPISDGTNYAQKFQGWVTMTRDTSISTVYMELSRLRSDDTAVYYCARGGSRCSGGNCYGWAYDAFDIWGQGTMITVSS
VL: QSALTQPASVSGSPGQSITISCTGTSSDVGGYNFVSWYQQHPGKAPKLMIYDVSKRPSGVSNRFSGSKSGNTASLTISGLQAEDEADCYCSSYTSSSTFVFGTGTKVTVL

How the values were obtained:
[1] = target: T1, SARS-CoV-2 S trimer (soluble spike ectodomain trimer) (SARS-CoV-2, UniProt P0DTC2 14-1213); test: SPR
[2] = target: T1, SARS-CoV-2 S trimer (soluble spike …); test: ELISA
[3] = target: T2, SARS-CoV-2 receptor binding domain (RBD) (SARS-CoV-2, UniProt P0DTC2 319-591); test: ELISA
[4] = target: T2, SARS-CoV-2 receptor binding domain (RBD); test: SPR
[5] = target: T1, SARS-CoV-2 S trimer (soluble spike …); test: SPR; remark: listed apart in the source
[6] = target: T1, SARS-CoV-2 S trimer (soluble spike …); test: SPR; remark: listed apart in the source

| Binder | Kd [1] [nM] | EC50 [2] [µg/mL] | EC50 [3] [µg/mL] | Kd [4] [nM] | Kd [5] [nM] | Kd [6] [nM] |
| --- | --- | --- | --- | --- | --- | --- |
| B1 | 51.4 | 0.305 | 0.289 | – | – | – |
| B2 | 8.7 | 0.018 | 0.021 | 34.2 | 41.2 | – |
| B3 | – | 0.017 | – | – | – | 77.1 |
| B4 | 5.7 | 0.006 | 0.008 | – | – | – |
